Source: US20180250396A1 (FONDAZIONE IRCCS ISTITUTO NAZIONALE DEI TUMORI, published 2018)

Key:
[1] = target: T1, TRAIL-R2 on cells (TRAIL-R2+ human melanoma and other tumor cell lines) (human, UniProt O14763 56-440); assay: soluble scFv on TRAIL-R2+ cells
T1 construct: whole, on cells; Endogenous receptor on cell lines; also called TRAIL-R2+ cells

[2] = target: T2, naive TRAIL-R2 captured from SU-DHL-4 cell lysate (human, UniProt O14763 56-440, limits assumed); assay: single clone phage ELISA (scFv on phage), TRAIL-R2 captured from SU-DHL-4 lysate
T2 construct: also called naïve TRAIL-R2; natural TRAIL-R2

[3] = target: T3, Recombinant human TRAIL-R2 (R&D Systems) (human, UniProt O14763 54-182, limits assumed); assay: SPR (BIAcore), recombinant TRAIL-R2 immobilised on a CM5 chip, 5 scDb concentrations from 400 to 25 nM
T3 construct: Bought recombinant protein, amine-coupled to a CM5 chip; also called TRAIL-R2 recombinant protein; recombinant receptor

Binder | binding result [1] | binding result [2] | Kd [3]
Clone 44 anti-TRAIL-R2 ScFv isolated with Phage Display (scFv, Tested on phage and as soluble scFv) scFv: QVHLRESGGGLVQPGRSLRLSCAASGFTFDDYAMHWVRQAPGKGLEWVSGISWNSGSISYADSVKGRFTISRDNAKNSLYLQMSSLRSEDTAVYYCARDPNHGGDRRDDALDMWGQGTMVTVSSGGGGSGGGGSGGGGSSELTQDPAVSVALGQTVRITCQGHSLRSYFASWYQQRPRQAPTLVIYGKNNRPSGIPDRFSGSSSGNTASLTITGAQAEDEADYYCGSRDSSSTHRGVFGGGTKLTVLGAA | binds | binds | –
Clone 8 anti-TRAIL-R2 ScFv isolated with Phage Display (scFv, Tested on phage and as soluble scFv) scFv: EVQLLESGGGLVQPGGSLRLSCAASGFTFSSYAMSWVRQAPGKGLEWVSAISQQGQVTDYADSVKGRFTISRDNSKNTLYLQMNSLRAEDTAVYYCAKRWNRFDYWGQGTLVIVSSGGGGSGGGGSGGGGSTDIQMTQSPSSLSASVGDRVTITCRASQSISSYLNWYQQKPGKAPKLLIYAASGLQSGVPSRFSGSGSGTDFTLTISSLQPEDFATYYCQQHSMSPNTFGQGTKVEIKRAA | binds | binds | –
scDb 16e2/hUCTH1 (bispecific antibody, Made in E. coli HB2151 periplasm; also called 16e2×hUCTH1 scDb; 16E2×hUCTH1 scDb) EVQLVQSGGGVERPGGSLRLSCAASGFTFDDYGMSWVRQAPGKGLEWVSGINWNGGSTGYADSVKGRVTISRDNAKNSLYLQMNSLRAEDTAVYYCAKILGAGRGWYFDLWGKGTTVTVSSTGGGGSDIQMTQSPSSLSASVGDRVTITCRASQDIRNYLNWYQQKPGKAPKLLIYYTSRLESGVPSRFSGSGSGTDYTLTISSLQPEDFATYYCQQGNTLPWTFGQGTKVEIKRGGGGSGGGGSGGGGSEVQLVESGGGLVQPGGSLRLSCAASGYSFTGYTMNWVRQAPGKGLEWVALINPYKGVSTYNQKFKDRFTISVDKSKNTAYLQMNSLRAEDTAVYYCARSGYYGDSDWYFDVWGQGTLVTVSSGGGGSRSELTQDPAVSVALGQTVRITCQGDSLRSYYASWYQQKPGQAPVLVIYGKNNRPSGIPDRFSGSSSGNTASLTITGAQAEDEADYYCNSRDSSGNHVVFGGGTKLTVLAAAHHHHHHGAAEQKLISEEDLNGAA | – | – | 148 nM
